Measurements taken from the RNAGym collection of RNA variant scans (doi:10.1073/pnas.2313332121).
Fewer inactive variants are shown than the library holds.

B1: TPR 5TU (parent)
chain: GGAUCUUCUCGAUCUAACAAAAAAGACAAAUCUGCCACAAAGCUUGAGAGCAUCUUCGGAUGCAGAGGCGGCAGCCUUCGGUGGCGCGAUAGCGCCAACGUUCUCAACUAUGACACGCAAAACGCGUGCUCCGUUGAAUGGAGUUUAUCAUG

Variants of: B1
Experiment: polymerase ribozyme fitness, log enrichment relative to wild type (log ratio); higher = more active; in vitro selection for triplet polymerase activity
Outline: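 Input and output libraries were sequenced on Illumina after a single in vitro selection round, run in triplicate on PCR-built, transcribed mutant libraries of each subunit of a heterodimeric triplet polymerase ribozyme. Selection annealed libraries to a biotinylated primer, the partner subunit and triplets, incubated them frozen at −7 °C, then gel-excised extended constructs for streptavidin-bead capture and RT-PCR. Genotypes with ≥10 input reads and ≥1 read per output were kept. Fitness is the logarithm, taken in base 2, of genotype enrichment divided by wild-type enrichment, using inverse-variance-weighted replicate averages.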

Row | Variant | polymerase ribozyme fitness (log ratio)
1 | A3U U31C C57U G86A | -1.99
2 | A21C A52U G74A G94C A121U | ≤ -4.2
3 | G74C C76A C87U C114U C116U | ≤ -4.2
4 | A24U G68C G83U A107C | ≤ -4.2
5 | A98U G141U | 1.39
6 | C8G U53C G58C C79U A89G U139C | ≤ -4.2
7 | A28G U61G C95A A97U A107U | ≤ -4.2
8 | A16C A150U | -0.0438
9 | A19U U55G G86U | -1.7
10 | A17C A26G A41C C54A C72U C87A G100C G143U | ≤ -4.2
11 | U6G U31G G84U | -0.345
12 | G11A G50U U82C G86A C116A | -3.47
13 | A17G G58C U61G G71U G86C U104G G143C | ≤ -4.2
14 | A28G G80A G141A | ≤ -4.2
15 | G80U G81C G84U A89U A97U G100A G126U | ≤ -4.2
16 | C5U G84A A142U | -0.976
17 | A20G A24G A40C A49C C85A | ≤ -4.2
18 | C14G C36U U45G G59A C95U A97G A98U C125A U139G | -4.03
19 | G50C C63G C96A C118U A119C | -0.626
20 | A12C G58C C96G | -1.07
21 | A60C A97U | -1.64

Row | Variant | polymerase ribozyme fitness (log ratio)
22 | A12U A16U C51A G94A U109C A113G C116A U144A | ≤ -4.2
23 | C93G G141C | -3.36
24 | C114U C118G | -2.88
25 | A24C A73C G86U C96A | ≤ -4.2
26 | U55A G86A C93A U104C A113U G126A | ≤ -4.2
27 | A73G C114U | -2.66
28 | U55A G84A A119C G133U G143A | -4.03
29 | U4C C5A C10U U33A G88C C116U G140A | ≤ -4.2
30 | A40U G50C C85G C99U A137U U148G | ≤ -4.2
31 | C51G C125U G141U | -3.54
32 | C57U U127C | -2.13
33 | A49C U53A G88C G141C | ≤ -4.2
34 | A40C C96U A122G G124C | -0.809
35 | A12C U61G C75G C96U C131U G140U G141A | ≤ -4.2
36 | A21U G71C C79G A107U A142C | ≤ -4.2
37 | A41U G74A G94C | ≤ -4.2
38 | C87G U111G | ≤ -4.2
39 | C36G C99G C132U U146C | -4.06
40 | A21U A24U A64C U101G A110G A138C U145A | ≤ -4.2
41 | A20C A30C G100C U102G G143U U145G | ≤ -4.2
42 | A22U U135C | -1.64

Row | Variant | polymerase ribozyme fitness (log ratio)
43 | U4C A16C A19U G86U C96A C108A | ≤ -4.2
44 | A3U C85A | -1.48
45 | G80C G86U | -3.37
46 | A120G A137C | -4.08
47 | A17U C36G G67U C87G C95G C99A C103A | ≤ -4.2
48 | A40G A73G G86A | -4.16
49 | G86C U101A U104G A107C G112C | ≤ -4.2
50 | C54G G83U C108U A115G G143A | ≤ -4.2
51 | A30C U31C C32A G46C G50C G58U G88C U104C A122G | ≤ -4.2
52 | U31C C95G | -0.224
53 | U45A G140U | -4.19
54 | C69A C75U A106G A120G | -2.33
55 | C72U G92A C116U U139G | -3.15
56 | A16G A20U C32A U45A A47C G83C C93G G140A | ≤ -4.2
57 | G59C A97U | -0.431
58 | U9A A22G G34A A106G C116U A120U | ≤ -4.2
59 | G81C A98U A107G | ≤ -4.2
60 | A23G U44A U61A G70U C76G C93G G143C | ≤ -4.2
61 | A12C A26C G92C | -3.66
62 | G80C G92U C96U U135G A150G | ≤ -4.2
63 | U53A G81U G88A A115G A147U | ≤ -4.2

Row | Variant | polymerase ribozyme fitness (log ratio)
64 | C118G C129U | -1.77
65 | A22U C99U | -0.0944
66 | A19U G81C C85U U145A | -0.303
67 | A17U U31G C32A A150G | ≤ -4.2
68 | U82A C93G | -3.41
69 | G46A C63G G67C C85U | ≤ -4.2
70 | C32G G59C G71C C85A G88A U151A | ≤ -4.2
71 | G86A G141U | -1.07
72 | G50U U55A C96U | -0.864
73 | G42A A49C C69G A137U | ≤ -4.2
74 | A21G C27U A40U C69U C95G A98G C99U A115U A142U | ≤ -4.2
75 | A49C A52G G83A U102G U134G | -3.78
76 | A37U C38G A97C | -1.69
77 | C72U U145A | 0.261
78 | U53A C93U G140C | ≤ -4.2
79 | C63A G92C | -1.03
80 | U61A C85A | -3.12
81 | C10U G124C U139G U148C | ≤ -4.2
82 | U45A G46A U55C A66G U77G U82A C103G U135C U145C | ≤ -4.2
83 | A21U C57A A107C A122G C123U U135C U145A | ≤ -4.2
